According to article PMC6200327 (The Biochemical journal, 2018):

Target: the molecule itself
Test: crystal structure

B1: mouse RIG-I CARDs (residues 1-189), bacterially expressed (domain or fragment, UniProt Q6Q899 1-189, looked up)
chain: MTAEQRQNLQAFRDYIKKILDPTYILSYMSSWLEDEEVQYIQAEKNNKGPMEAASLFLQYLLKLQSEGWFQAFLDALYHAGYCGLCEAIESWDFQKIEKLEEHRLLLRRLEPEFKATVDPNDILSELSECLINQECEEIRQIRDTKGRMAGAEKMAECLIRSDKENWPKVLQLALEKDNSKFSELWIVD
B1 was tested. Which “stoichiometry N” value did it give?
The value was 4.
